Experimental data taken from paper PMC3679265 (Biochimica et biophysica acta, 2013).
Numbering of substitutions follows the chain as printed. Numbers in names are those of the source.

B1: human galactose-1-phosphate uridylyltransferase p.F171S (enzyme, UniProt P07902 1-379, looked up)
chain: MSRSGTDPQQRQQASEADAAAATFRANDHQHIRYNPLQDEWVLVSAHRMKRPWQGQVEPQLLKTVPRHDPLNPLCPGAIRANGEVNPQYDSTFLFDNDFPALQPDAPSPGPSDHPLFQAKSARGVCKVMCFHPWSDVTLPLMSVPEIRAVVDAWASVTEELGAQYPWVQISENKGAMMGCSNPHPHCQVWASSFLPDIAQREERSQQAYKSQHGEPLLMEYSRQELLRKERLVLTSEHWLVLVPFWATWPYQTLLLPRRHVRRLPELTPAERDDLASIMKKLLTKYDNLFETSFPYSMGWHGAPTGSEAGANWNHWQLHAHYYPPLLRSATVRKFMVGYEMLAQAQRDLTPEQAAERLRALPEVHYHLGQKDRETATIA
B2: human galactose-1-phosphate uridylyltransferase p.D28Y (enzyme, UniProt P07902 1-379, looked up)
chain: B1 chain with D28Y, S171F
B3: human galactose-1-phosphate uridylyltransferase p.R333G (enzyme, UniProt P07902 1-379, looked up)
chain: B1 chain with S171F, R333G
B4: human galactose-1-phosphate uridylyltransferase p.L74P (enzyme, UniProt P07902 1-379, looked up)
chain: B1 chain with L74P, S171F
B5: human galactose-1-phosphate uridylyltransferase p.F194L (enzyme, UniProt P07902 1-379, looked up)
chain: B1 chain with S171F, F194L

Legend:
cross-linking = biological target: the molecule itself; assay: cross-linking
SEC = biological target: the molecule itself; assay: SEC

Protein | stoichiometry N (cross-linking) | stoichiometry N (SEC)
B1 | 2 | –
B2 | – | 2
B3 | 2 | –
B4 | – | 2
B5 | 2 | –
